From patent US20180355043A1 (Janssen / Centocor, published 2018)
Read-outs that look alike come from different tables or passages of the source.

Experiments:
[1] = biological target: T1, DR4G89: Human HLA-DRA1*01:02/DRB1*04:01 ECD with hemagglutinin peptide HA_304-318 (human); assay: MSD ECL; antigen coated; mAb 0.2 µg/ml
T1 construct: also called DRG89; HLA-DR4 with HA_304-318

[2] = biological target: T2, DR4G93: Human HLA-DRA1*01:02/DRB1*01:01 ECD with hemagglutinin peptide HA_304-318 (human); assay: MSD ECL; antigen coated; mAb 0.2 µg/ml
T2 construct: also called HLA-DR1 with HA_304-318

[3] = biological target: T3, DR4G119: Human HLA-DRA1*01:02/DRB1*10:01 ECD with hemagglutinin peptide HA_304-318 (human); assay: MSD ECL; antigen coated; protocol of Example 3
T3 construct: also called DRB1*10:01 HA

[4] = biological target: T4, DR4G104: Human HLA-DRA1*01:02/DRB1*04:02 ECD with hemagglutinin peptide HA_304-318 (human); assay: MSD ECL; antigen coated; protocol of Example 3
T4 construct: also called DRB1*04:02 HA

[5] = biological target: T5, DR4G103: Human HLA-DRA1*01:02/DRB1*15:01 ECD with hemagglutinin peptide HA_304-318 (human); assay: MSD ECL; antigen coated; protocol of Example 3;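 as to ECL signal: antibodies tested at 0.04–5 µg/ml on plate-coated soluble HLA-DR carrying peptide on the beta chain N-terminus, bound antibody detected by SulfoTag anti-human kappa secondary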
T5 construct: also called DRB1*15:01 HA

[6] = biological target: T1, DR4G89: Human HLA-DRA1*01:02/DRB1*04:01 …; assay: MSD ECL; antigen coated; mAb 0.2 µg/ml; remark: listed apart in the source
[7] = biological target: T2, DR4G93: Human HLA-DRA1*01:02/DRB1*01:01 …; assay: MSD ECL; antigen coated; mAb 0.2 µg/ml; remark: listed apart in the source
[8] = biological target: T1, DR4G89: Human HLA-DRA1*01:02/DRB1*04:01 …; assay: SPR ProteOn XPR36; mAb amine-coupled, antigen as analyte; 25 °C
[9] = biological target: T2, DR4G93: Human HLA-DRA1*01:02/DRB1*01:01 …; assay: as above
[10] = biological target: T4, DR4G104: Human …; assay: MSD ECL; antigen coated
[11] = biological target: T5, DR4G103: Human …; assay: MSD ECL; antigen coated
[12] = biological target: T1, DR4G89: Human HLA-DRA1*01:02/DRB1*04:01 …; assay: MSD ECL; antigen coated
[13] = biological target: T2, DR4G93: Human HLA-DRA1*01:02/DRB1*01:01 …; assay: MSD ECL; antigen coated

Binder | ECL signal [1] [ECL] | ECL signal [2] [ECL] | ECL signal [3] [ECL] | ECL signal [4] [ECL] | ECL signal [5] [ECL] | ECL signal [6] [ECL] | ECL signal [7] [ECL] | further results
DR4B98 (antibody, human IgG2, kappa, V domains shown, also called VH DR4H50 / VL PH9L3) VH: QVQLVQSGAEVKKPGSSVKVSCKASGGTFKSYYIHWVRQAPGQGLEWMGGIAPIYGTAYYAQKFQGRVTITADESTSTAYMELSSLRSEDTAVYYCARDASWARAYGFDYWGQGTLVTVSS VL: EIVLTQSPATLSLSPGERATLSCRASQSVSSYLAWYQQKPGQAPRLLIYDASNRATGIPARFSGSGSGTDFTLTISSLEPEDFAVYYCQQRSNWPLTFGQGTKVEIKR | 775000 | 140000 | 94700 | 421000 | 34700 | – | – | –
DR4B78 (antibody, human IgG2, kappa, V domains shown, also called VH DR4H62 / VL PH9L3) VH: not shown VL: EIVLTQSPATLSLSPGERATLSCRASQSVSSYLAWYQQKPGQAPRLLIYDASNRATGIPARFSGSGSGTDFTLTISSLEPEDFAVYYCQQRSNWPLTFGQGTKVEIKR | – | – | – | – | – | 979000 | 1.06e+06 | –
DR4B30 (antibody, human IgG2, kappa, V domains shown, also called VH DR4H39 / VL PH9L3) VH: EVQLVQSGAEVKKPGESLKISCKGSGYSFTSDWIGWVRQMPGKGLEWMGIIRPGDSDTYYSPSFQGQVTISADKSISTAYLQWSSLKASDTAVYYCARESYYYVGVRYRPSYYFDYWGQGTLVTVSS VL: EIVLTQSPATLSLSPGERATLSCRASQSVSSYLAWYQQKPGQAPRLLIYDASNRATGIPARFSGSGSGTDFTLTISSLEPEDFAVYYCQQRSNWPLTFGQGTKVEIKR | 1.13e+06 | 1.07e+06 | – | – | – | 1.13e+06 | 1.07e+06 | –
DR4B70 (antibody, human IgG2, kappa, V domains shown, also called VH DR4H29 / VL PH9L3) VH: not shown VL: EIVLTQSPATLSLSPGERATLSCRASQSVSSYLAWYQQKPGQAPRLLIYDASNRATGIPARFSGSGSGTDFTLTISSLEPEDFAVYYCQQRSNWPLTFGQGTKVEIKR | – | – | – | – | – | 888000 | 972000 | –
DR4B38 (antibody, human IgG2, kappa, V domains shown, also called VH DR4H56 / VL PH9L3) VH: not shown VL: EIVLTQSPATLSLSPGERATLSCRASQSVSSYLAWYQQKPGQAPRLLIYDASNRATGIPARFSGSGSGTDFTLTISSLEPEDFAVYYCQQRSNWPLTFGQGTKVEIKR | – | – | – | – | – | 1.22e+06 | 1.12e+06 | –
DR4B22 (antibody, human IgG2, kappa, V domains shown, also called VH DR4H16 / VL PH9L3) VH: EVQLLESGGGLVQPGGSLRLSCAASGFTFSSYAMNWVRQAPGKGLEWVSAISGSGGYTNYADSVKGRFTISRDNSKNTLYLQMNSLRAEDTAVYYCARDGGYYRYVYRYPGDYAFGYWGQGTLVTVSS VL: EIVLTQSPATLSLSPGERATLSCRASQSVSSYLAWYQQKPGQAPRLLIYDASNRATGIPARFSGSGSGTDFTLTISSLEPEDFAVYYCQQRSNWPLTFGQGTKVEIKR | – | – | – | – | – | 1.01e+06 | 896000 | –
DR4B127 (antibody, human IgG2, kappa, V domains shown, also called VH DR4H7 / VL PH9L3) VH: QVQLVQSGAEVKKPGSSVKVSCKASGGTFKSYYIHWVRQAPGQGLEWMGGIRPISGNAEYAQKFQGRVTITADESTSTAYMELSSLRSEDTAVYYCARDASYYRNYGFDYWGQGTLVTVSS VL: EIVLTQSPATLSLSPGERATLSCRASQSVSSYLAWYQQKPGQAPRLLIYDASNRATGIPARFSGSGSGTDFTLTISSLEPEDFAVYYCQQRSNWPLTFGQGTKVEIKR | 1.03e+06 | 918000 | 1.24e+06 | 1.27e+06 | 334000 | – | – | Kd [8]: 9.19 nM; koff [8]: 0.000155 s⁻¹; kon [8]: 16800 M⁻¹ s⁻¹; Kd [9]: 47.7 nM; koff [9]: 0.00092 s⁻¹; kon [9]: 19300 M⁻¹ s⁻¹
DR4B6 (antibody, V domains shown, also called L243 re-engineered as IgG2sigma) VH: QIQLVQSGPELKKPGETVKISCKASGFTFTNYGMNWVKQAPGKGLKWMGWINTYTREPTYADDFKGRFAFSLETSASTAYLQINNLKNEDTAKYFCARDITAVVPTGFDYWGQGTTLTVSS VL: DIQMTQSPASLSVSVGETVTITCRASENIYSNLAWYRQKQGKSPQLLVFAASNLADGVPSRFSGSGSGTQYSLKINSLQSEDFGDYYCQHFWTTPWAFGGGTNLEIK | 1.34e+06 | 1.32e+06 | 580000 | 415000 | 142000 | – | – | –
DR4B4 (antibody, V domains shown, also called Lym-1 re-engineered as IgG2sigma) VH: QVQLKESGPGLVAPSQSLSITCTISGFSLTSYGVHWVRQPPGKGLEWLVVIWSDGSTTYNSALKSRLSISKDNSKSQVFLKMNSLQTDDTAIYYCASHYGSTLAFASWGHGTLVTVSA VL: DIQMTQSPASLSASVGETVTIICRASVNIYSYLAWYQQKQGKSPQLLVYNAKILAEGVPSRFSGSGSGTQFSLKINSLQPEDFGSYYCQHHYGPFTFGSGTKLEIK | 1.28e+06 | 888000 | 572000 | 451 | 287 | – | – | binding result [10]: no binding; binding result [11]: no binding
DR4B5 (antibody, V domains shown, also called apolizumab (1D10) re-engineered as IgG2sigma) VH: QVQLQESGPGLVKPSETLSLTCTVSGFSLTNYGVHWVRQSPGKGLEWIGVKWSGGSTEYNAAFISRLTISKDTSKNQVSLKLNSLTAADTAVYYCARNDRYAMDYWGQGTLVTVSS VL: DIQMTQSPSSLSASVGDRVTITCRASENIYSYLAWYQQKPGKAPKLLVSNAKTLAEGVPSRFSGSGSGKQFTLTISSLQPEDFATYYCQHHYGNSYPFGQGTKLEIK | 1.26e+06 | 1.3e+06 | 132000 | 825 | 329 | – | – | binding result [10]: no binding; binding result [11]: no binding
DR4B33 (antibody, human IgG2, kappa, V domains shown, also called VH DR4H58 / VL PH9L4) VH: EVQLVQSGAEVKKPGESLKISCKGSGYSFDSAYINWVRQMPGKGLEWMGIIRPGDSRTRYSPSFQGQVTISADKSISTAYLQWSSLKASDTAVYYCARDGYYFVGSIIYYGMDVWGQGTLVTVSS VL: not shown | – | – | – | – | – | – | – | binding result [12]: binds; binding result [13]: binds
